{"source": "patent US20180282373", "target": "purified recombinant full-length WDR5, P61964", "data": [{"protein": "GST-tagged MLL3 Win-SET domain, MLL3(4689-4911), R4710A (protein) FRYGRNPLMELPLAVNPTGCAASEPKMSAHVKRFVLRPHTLNSTSTSKSFQSTVTGELNAPYSKQFVHSKSSQYRKMKTEWKSNVYLARSRIQGLGLYAARDIEKHTMVIEYIGTIIRNEVANRKEKLYESQNRGVYMFRMDNDHVIDATLTGGPARYINHSCAPNCVAEVVTFERGHKIIISSSRRIQKGEELCYDYKFDFEDDQHKIPCHCGAVNCRKWMN", "values": [{"measurement": "core complex methyltransferase activity, H3K4me0 peptide, mutant against wild type", "value": "approximately 2-fold more activity than the wild-type MLL3 core complex"}]}, {"protein": "GST-tagged SETd1B Win-SET domain, Setd1B(1727-1966), R1748A (protein) LSSAKKKKRDDGIREHVTGCAASEGFYTIDKKDKLRYLNSSRASTDEPPADTQGMSIPAQPHASTRAGSERRSEQRRLLSSFTGSCDSDLLKFNQLKFRKKKLKFCKSHIHDWGLFAMEPIAADEMVIEYVGQNIRQVIADMREKRYEDEGIGSSYMFRVDHDTIIDATKCGNFARFINHSCNPNCYAKVITVESQKKIVIYSKQHINVNEEITYDYKFPIEDVKIPCLCGSENCRGTLN", "values": [{"measurement": "core complex methyltransferase activity, H3K4me1 and H3K4me2 peptides, mutant against wild type", "value": "showed similar amounts of activity compared to that of their wild-type counterparts"}]}]}
